Measurements as given in patent publication US20100137155A1, “BIOSENSOR, METHOD FOR FABRICATING THE SAME, DETECTING METHOD UTILIZING THE SAME” (SHARP KABUCHIKI KAISHA, priority 2006, published 2010).

Columns and labels:
[1] = molecular target: T1, Cry-J1 (Cryptomeria japonica, UniProt P18632); assay: ELISA detection efficiency for Cry-J1 of peptides bonded to PEG-DG linkers on aminated plate (Examples 2-5); assay type: binding, Japanese cedar (Cryptomeria japonica); details: for reactivity with respect to Cry-J1 (SH1 compared with AL1) / inclination of the 450 nm light absorbance versus antigen Cryj1 concentration: PEG-DG chain length 11.0 Å, n=2; for reactivity with respect to Cry-J1 (SH1 compared with AL1): FIG. 10; for inclination of the 450 nm light absorbance versus antigen Cryj1 concentration: antigen Cryj1 0 to 2.0 μg/mL
T1 sequence (P18632 22-374): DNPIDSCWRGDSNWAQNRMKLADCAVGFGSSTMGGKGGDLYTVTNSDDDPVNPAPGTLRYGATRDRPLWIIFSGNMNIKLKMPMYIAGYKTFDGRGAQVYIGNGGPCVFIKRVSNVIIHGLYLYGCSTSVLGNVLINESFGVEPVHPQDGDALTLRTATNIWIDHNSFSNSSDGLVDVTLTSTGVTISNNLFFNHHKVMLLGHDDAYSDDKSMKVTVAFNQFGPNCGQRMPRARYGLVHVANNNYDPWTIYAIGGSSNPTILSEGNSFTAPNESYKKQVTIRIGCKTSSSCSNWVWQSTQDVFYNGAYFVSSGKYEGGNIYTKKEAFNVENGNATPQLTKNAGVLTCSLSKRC
Description: In order to examine influences that the length of the linker has on the detection sensitivity of the biosensor, the following experiment was carried out. A 5 μg/mL aqueous solution of acetyl-NH-TEYTIHWWK-COOH(SH1) serving as an artificially synthesized CRY-J1 recognition peptide was mixed with a sodium hydrogen carbonate buffer solution (pH=9) containing 45 μM poly(or mono)ethylene glycol diglycidyl ether (PEG-DG) in order to cause a solid phase reaction.
As PEG-DG (poly(or mono)ethylene glycol diglycidyl ether) serving as a linker molecule, six kinds thereof with different chain lengths were selected. Specifically, sample 1: 8.3 Å chain length, degree of polymerization n=1; sample 2: 11.0 Å chain length, degree of polymerization n=2; sample 3: 16.6 Å chain length, degree of polymerization n=4; sample 4: […] chain length, degree of polymerization n=9; sample 5: 41.4 Å chain length, degree of polymerization n=13; and sample 6: 66.2 Å chain length, degree of polymerization n=22. The PEG-DG was selected from the Denacole EX series of Nagase ChemteX Corporation.
Using an aminated 96-hole ELISA method plate (Sumilon MS-3608F, available from SUMITOMO BAKELITE Co., Ltd.) as a solid phase, the solid phase reaction was completed in 24 hours at room temperature.
Blocking One, available from Nacalai Tesque, Inc., was used for the blocking, and the reaction was carried out at room temperature and completed in 24 hours.
To each of the linker molecules with different lengths, 50 μL of each of the acetyl-NH-TEYTIHWWK-COOH diluted solutions of 0 μg/mL, 0.2 μg/mL, 0.5 μg/mL, 1.0 μg/mL, 2.0 μg/mL, and 5.0 μg/mL was dropped to cause bonding between the linker and the peptide.
Anti-cedar pollen antigen Cry-J1-HRP (Horse Radish Peroxidase) (SEIKAGAKU CORPORATION) serving as a secondary antibody was prepared by diluting it 1000-fold with a phosphoric acid buffer solution containing 0.1% Tween 20, and 100 μL of this preparation solution was added to cause a reaction for one hour at room temperature. […]
The solid phase reaction was caused by mixing a 5 μg/mL aqueous solution of acetyl-NH-KTEYTIHWWK-COOH with a sodium hydrogen carbonate buffer solution (pH=9) containing 45 μM poly(or mono)ethylene glycol diglycidyl ether (PEG-DG).
The solid phase reaction was caused by mixing a 5 μg/mL aqueous solution of acetyl-NH-TEETIWWWK-COOH with a sodium hydrogen carbonate buffer solution (pH=9) containing 45 μM polyethylene glycol diglycidyl ether (PEG-DG).
As polyethylene glycol diglycidyl ether (PEG-DG), one such that the chain length was 11.0 Å and the degree of polymerization was n=2 was used.
The reaction of the artificially synthesized peptide AM was carried out in such a manner that 50 μL of each of the antigen Cryj1 diluted solutions of 0 μg/mL, 0.2 μg/mL, 0.5 μg/mL, 1.0 μg/mL, 2.0 μg/mL, and 5.0 μg/mL was dropped to cause bonding between the linker and the peptide.
For acetyl-NH-TEYTIHWWK-COOH(SH1) serving as the artificially synthesized Cry-J1 recognition peptide, a solid phase was carried out in accordance with example 2. The poly(or mono)ethylene glycol diglycidyl ether (PEG-DG) that was used was such that the chain length was 11.0 Å and the degree of polymerization was n=2.

[2] = molecular target: T2, pollen allergen protein (Cry-J1) (Cryptomeria japonica, UniProt P18632); assay: ELISA of Cry-J1 capture by peptide immobilized on amino group-bonded plate via polyethylene diglycidyl ether (Example 1); assay type: binding, Japanese cedar (Cryptomeria japonica); details: Cry-J1 0, 1, 5, 10 ng/mL; peptide immobilized through polyethylene diglycidyl ether; FIG. 5
T2 construct: purchased SEIKAGAKU CORPORATION
T2 sequence (P18632 22-374): T1 sequence (P18632 22-374)
Description: The reactivity between anti-Cry-J1 antibody H chain hypervariable area peptide (acetylated TEYTIHWWK) and pollen allergen protein (Cry-J1) was studied by the ELISA method. The experiment method can be summarized as follows.
To a well of an amino group-bonded plate (MS-3608F, available from SUMITOMO BAKELITE Co., Ltd.), a 200 μL solution of 0.0095 mg/mL acetylated TEYTIHWWK and 0.018 mg/mL polyethylene diglycidyl ether was added, and the resulting product was settled for a night at 4° C.
The peptide solution was taken out, followed by addition thereto 200 μL Blocking One (available from Nacalai Tesque, Inc.), and the resulting product was subjected to blocking processing.
After the blocking processing, the blocking solution was taken out and the well was washed with PBS containing 0.05% Tween 20. As the washing, the operation of adding and taking out 200 μL PBS containing 0.05% Tween 20 (20 mM of sodium phosphate, pH 7.4, 0.15 M of NaCl) to and of the well was carried out three times. […]
To the well, 100 μL color developing solution (available from Nacalai Tesque, Inc.) was added to cause a reaction for 10 minutes at room temperature. After the 10 minutes of reaction, 100 μL stop solution was added, and a 450 nm light absorbance was measured with a plate reader (available from Bio-Rad Laboratories, Inc.).

| Substance | reactivity with respect to Cry-J1 (SH1 compared with AL1) [1] | inclination of the 450 nm light absorbance versus antigen Cryj1 concentration [1] | further results |
| --- | --- | --- | --- |
| acetyl-NH-KTEYTIHWW-COOH (Ac-KTEYTIHWW-OH) [anti-Cry-J1 antibody H chain hypervariable area peptide with N terminal lysine, α-amino group acetylated] | – | – | detection efficiency with respect to Cry-J1 (inclination of 450 nm light absorbance) ([1]; linker bonded at N terminal lysine side chain, linker lengths of 20 to 60 Å (degree of polymerization n=4 to 9), FIG. 7): high |
| acetyl-NH-KTEYTIHWWK-COOH (Ac-KTEYTIHWWK-OH) [Cry-J1 recognition peptide with a lysine residue at both terminals, N terminal α-amino group acetylated] | – | – | detection efficiency with respect to Cry-J1 (inclination of 450 nm light absorbance) ([1]; one linker at N terminal lysine and another at C terminal lysine, linker lengths 8.3 to 66.2 Å (n=1 to 22), FIG. 8): substantially the same irrespective of the linker length |
| acetyl-NH-TEETIWWWK-COOH (Ac-TEETIWWWK-OH) [peptide in which tyrosine was changed to glutamic acid and histidine to tryptophan] | substantially the same reactivity | linear | – |
| acetyl-NH-TEYTIHWWK-COOH (Ac-TEYTIHWWK-OH) [artificially synthesized CRY-J1 recognition peptide; only α-amino group of N terminal T acetylated, lysine added to C terminal] | substantially the same reactivity | linear | reactivity between peptide and pollen allergen protein (Cry-J1), 450 nm light absorbance [2]: captured by the peptide depending on the concentration of the protein; detection efficiency with respect to Cry-J1 (inclination of 450 nm light absorbance) ([1]; linker bonded at C terminal lysine, linker lengths of 15 Å or less (n=1 or 2) compared with 16.6 Å or more (n=4 or greater), FIG. 6): higher |
